Measured values as given in paper PMC4901313.

Molecular target: Gp45, receptor binding protein (RBP) of Staphylococcus aureus phage ϕ11 (Staphylococcus aureus phage ϕ11)
Test: crystal structure; native crystals, space group P1, 2.20 Å; grown in 0.1 M bicine/Trizma base pH 8.5, 10% w/v PEG 8000, 20% v/v ethylene glycol, 0.12 M monosaccharide-mix at 16 °C; three monomers related by non-crystallographic three-fold symmetry

“Gp45, receptor binding protein (RBP) of Staphylococcus aureus phage ϕ11 (natural protein)” showed a stoichiometry N of 3.
